Test results taken from patent publication US20200016206A1.

Target: IL-2Rαβ (UniProt P01589)
Experiment: in vitro binding affinity against IL-2 as standard; method presumably the SPR of Example 2 (Biacore T-100, receptor-Fc captured, EC50 from RU against concentration)

Sequence of UniProt P01589 (P01589 22-213 limits assumed): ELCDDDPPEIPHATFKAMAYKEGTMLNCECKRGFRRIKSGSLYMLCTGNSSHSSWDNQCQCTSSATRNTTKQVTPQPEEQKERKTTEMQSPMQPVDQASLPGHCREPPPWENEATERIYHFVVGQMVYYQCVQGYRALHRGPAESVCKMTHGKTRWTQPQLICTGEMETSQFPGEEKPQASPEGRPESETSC

RSLAIL-2 (rIL-2 with the aldesleukin sequence, releasably PEGylated with mPEG2-C2-Fmoc-20kD-NHS) (from UniProt P60568 22-153) (ligand)
fold decrease in affinity relative to IL-2: 60 fold
